According to patent US20140274782A1, “AFFINITY REAGENTS AND METHODS FOR DETECTION, PURIFICATION, AND PROTEOMIC ANALYSIS OF METHYLATED PROTEINS” (The Board of Trustees of the Leland Stanford Junior …, priority 2013, published 2014):

Columns and labels:
Test in all cases: ProtoArray, GST-treated control array
Details in all cases: remark: other sources report otherwise
[1] = target: C12orf23-chromosome 12 open reading frame 23 (C12orf23) (human), Q8WUH6
[2] = target: UBE2D2-Ubiquitin-conjugating enzyme E2 D2 (human), P62837
Sequence of UBE2D2-Ubiquitin-conjugating enzyme E2 D2 (human), P62837 (P62837 whole entry): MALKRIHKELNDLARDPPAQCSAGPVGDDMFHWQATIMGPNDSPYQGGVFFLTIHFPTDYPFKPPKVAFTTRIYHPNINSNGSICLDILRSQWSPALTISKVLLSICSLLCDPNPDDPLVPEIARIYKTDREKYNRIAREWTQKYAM

[3] = target: YPEL5-yippee-like 5 (Drosophila) (YPEL5) (human), P62699
Sequence of YPEL5-yippee-like 5 (Drosophila) (YPEL5) (human), P62699 (P62699 whole entry): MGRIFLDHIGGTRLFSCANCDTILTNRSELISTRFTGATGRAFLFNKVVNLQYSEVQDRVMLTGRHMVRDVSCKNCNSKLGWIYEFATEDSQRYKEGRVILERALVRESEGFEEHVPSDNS

- GST Average SNR [1]: 0.48
- GST Average SNR [2]: -0.383
- GST Average SNR [3]: -0.787
B1: 3× Flag-3×MBT (designed binder, not shown: a dimerising Fc or GST)
chain: EEWSSSQPATGEKKECWSWESYLEEQKAITAPVSLFQDSQAVTHNKNGFKLGMKLEGIDPQHPSMYFILTVAEVCGYRLRLHFDGYSECHDFWVNANSPDIHPAGWFEKTGHKLQPPKGYKEEEFSWSQYLRSTRAQAAPKHLFVSQSHSPPPLGFQVGMKLEAVDRMNPSLVCVASVTDVVDSRFLVHFDNWDDTYDYWCDPSSPYIHPVGWCQKQGKPLTPPQDYPDPDNFCWEKYLEETGASAVPTWAFKVRPPHSFLVNMKLEAVDRRNPALIRVASVEDVEDHRIKIHFDGWSHGYDFWIDADHPDIHPAGWCSKTGHPLQPPLGPREPSSASPGG
